Consider two molecules from US20020161202A1, “Apo-2DcR” (Genentech, Inc., priority 1997, published 2002).

The test system of one assay is Apo-2L. As to the kind of experiment: Binding of radioiodinated Apo-2L to Apo-2DcR-transfected 293 cells. Particulars: 125I-Apo-2L; 293 cells transfected with full-length Apo-2DcR vs pRK5; FIG. 4. Here is the method: To test whether Apo-2DcR binds to Apo-2L, and to assess whether Apo-2DcR is GPI-linked, binding of radioiodinated Apo-2L to Apo-2DcR-transfected 293 cells was analyzed. The effect of pre-treatment of the cells with phosphatidylinositol-specific phospholipase C (PI-PLC) on the binding was also analyzed.
Human 293 cells (ATCC CRL 1573) were plated in 100 mm plates (1×10^6 cells/plate) and transfected with 20 μg/plate pRK5 or pRK5 encoding the full-length Apo-2DcR (described in Example 1, ATCC deposit 209087) using calcium phosphate precipitation. After 24 hours, the cells were harvested in PBS/10 mM EDTA, washed in phosphate buffered saline (PBS), resuspended in 2 ml PBS per original plate and divided into two 1 ml aliquots per transfection. PI-PLC [Treanor et al., Nature, 382:80-83 (1996)] (1 μg/ml) was added to one of the two aliquots derived from each transfection, and the cells were incubated 1 hour at 37° C. The cells were washed and respuspended in 1 ml PBS containing 1% BSA (Sigma), and 0.04 ml aliquots were placed into tubes in triplicate. […] After a 1 hour incubation at room temperature, the cells were washed in ice cold PBS, pelleted, and counted for radioactivity.

In a further assay the test system is Human 293 cells. As to the kind of experiment: Apo-2L apoptosis induction in Apo-2DcR-transfected 293 cells (morphology of GFP-positive cells). It counts as cell-based. Particulars: 293 cells transfected with pRK5-hApo-2DcR; Apo-2L 0.5 μg/ml; examined over 6 hours; FIG. 5. The procedure: Human 293 cells, which express both DR4 and Apo-2 mRNA (data not shown), were plated in 100 mm plates (1×10^6 cells/plate) and transfected with 3 μg per plate pRK encoding green fluorescent protein (GFP; purchased from Clontech) together with 20 μg/plate pRK5 or pRK5-hApo-2DcR (see Example 2) using calcium phosphate precipitation. After 18 hours, the cells were treated with PBS or with Apo-2L (Pitti et al., supra, 0.5 μg/ml) and examined over 6 hours under a fluorescence microscope equipped with Hoffman optics (which enables clear viewing of non-fixed cells on plastic). GFP-positive cells were identified by green fluorescence and scored for apoptosis by morphologic criteria such as membrane blebbing and cytoplasmic condensation.

The subject of assay [1] is NF-κB. Nature of the assay: Activation of NF-κB by Apo-2L in Apo-2DcR-transfected 293 cells (electrophoretic mobility shift assay). The class given is cell-based, human. Particulars: 293 cells transfected with pRK5-hApo-2DcR, 18 hours; Apo-2L 0.5 μg/ml; FIG. 6. The procedure: In a similar experiment, the 293 cells were transfected by pRK5 or pRK5-hApo-2DcR (20 μg/plate) and analyzed 18 hours later for activation of NF-κB by Apo-2L (0.5 μg/ml), as in Example 10 below.
HeLa cells were transfected with pRK5 expression plasmids encoding full-length native sequence Apo-2, DR4 or Apo-3 and harvested 24 hours after transfection. Nuclear extracts were prepared and 1 μg of nuclear protein was reacted with a ^32P-labelled NF-κB-specific synthetic oligonucleotide probe […] (SEQ ID NO: 12) [see, also, MacKay et al., J. Immunol., 153:5274-5284 (1994)], alone or together with a 50-fold excess of unlabelled probe, or with an irrelevant ^32P-labelled synthetic oligonucleotide […] (SEQ ID NO: 13). In some samples, antibody to p65/RelA subunits of NF-κB (1 μg/ml; Santa Cruz Biotechnology) was added. DNA binding was analyzed by an electrophoretic mobility shift assay as described by Hsu et al., supra; Marsters et al., supra, and MacKay et al., supra.
In general terms: A gel shift assay detects complexes by their altered migration in electrophoresis.

For assay [2], the system named is NF-κB. Nature of the assay: NF-κB activation in HeLa cells transfected with receptor plasmids (electrophoretic mobility shift assay). It counts as cell-based, human. Particulars: harvested 24 hours after transfection, FIG. 12A. The procedure:
HeLa cells were transfected with pRK5 expression plasmids encoding full-length native sequence Apo-2, DR4 or Apo-3 and harvested 24 hours after transfection. […] Immunol., 153:5274-5284 (1994)], alone or together with a 50-fold excess of unlabelled probe, or with an irrelevant ^32P-labelled synthetic oligonucleotide […] NO: 13). In some samples, antibody to p65/RelA subunits of NF-κB (1 μg/ml; Santa Cruz Biotechnology) was added. DNA binding was analyzed by an electrophoretic mobility shift assay as described by Hsu et al., supra; Marsters et al., supra, and MacKay et al., supra.

Apo-2L, sequence (P50591 114-281 limits assumed): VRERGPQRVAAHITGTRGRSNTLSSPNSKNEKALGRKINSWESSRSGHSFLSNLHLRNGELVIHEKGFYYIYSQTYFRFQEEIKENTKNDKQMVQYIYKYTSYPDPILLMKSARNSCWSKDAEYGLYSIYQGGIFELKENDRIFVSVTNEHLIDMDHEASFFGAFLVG
Apo-2L, sequence (O14798 26-236 partner limits assumed): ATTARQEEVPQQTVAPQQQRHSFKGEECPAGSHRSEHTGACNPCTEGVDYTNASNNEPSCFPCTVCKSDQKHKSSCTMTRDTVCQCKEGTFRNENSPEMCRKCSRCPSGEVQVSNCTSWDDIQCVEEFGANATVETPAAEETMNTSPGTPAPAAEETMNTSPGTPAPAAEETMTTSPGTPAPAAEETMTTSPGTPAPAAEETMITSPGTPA

B1: Apo-2DcR: full-length native sequence human Apo-2DcR polypeptide, 259 amino acids, GPI-anchored TNFR family member; expressed by transfection (protein)
chain: ATTARQEEVPQQTVAPQQQRHSFKGEECPAGSHRSEHTGACNPCTEGVDYTNASNNEPSCFPCTVCKSDQKHKSSCTMTRDTVCQCKEGTFRNENSPEMCRKCSRCPSGEVQVSNCTSWDDIQCVEEFGANATVETPAAEETMNTSPGTPAPAAEETMNTSPGTPAPAAEETMTTSPGTPAPAAEETMTTSPGTPAPAAEETMTTSPGTPA
For the molecule B1, the “amount of specific Apo-2L binding” value with Apo-2L is reported as “marked increase”. For the same molecule, the “responsiveness to Apo-2L as measured by apoptosis induction” value in the assay on Human 293 cells was “markedly reduced”. Further, the “Apo-2L function as measured by NF-κB activation” value in the assay on NF-κB [1] was “inhibits Apo-2L function”.

B2: Apo-3/DR3: full length native sequence human TNFR family polypeptide with cytoplasmic death domain; expressed by transfection (protein, UniProt Q93038 1-417, looked up)
chain: MEQRPRGCAAVAAALLLVLLGARAQGGTRSPRCDCAGDFHKKIGLFCCRGCPAGHYLKAPCTEPCGNSTCLVCPQDTFLAWENHHNSECARCQACDEQASQVALENCSAVADTRCGCKPGWFVECQVSQCVSSSPFYCQPCLDCGALHRHTRLLCSRRDTDCGTCLPGFYEHGDGCVSCPTSTLGSCPERCAAVCGWRQMFWVQVLLAGLVVPLLLGATLTYTYRHCWPHKPLVTADEAGMEALTPPPATHLSPLDSAHTLLAPPDSSEKICTVQLVGNSWTPGYPETQEALCPQVTWSWDQLPSRALGPAAAPTLSPESPAGSPAMMLQPGPQLYDVMDAVPARRWKEFVRTLGLREAEIEAVEVEIGRFRDQQYEMLKRWRQQQPAGLGAVYAALERMGLDGCVEDLRSRLQRGP
modifications: full-length
notes: expressed by transfection
Take B2: in the assay with NF-κB [2], the “NF-κB activation upon transfection” value is listed as “activation observed”.
